This is an account of results in the supplement of paper PMC5998384.

The subject of data set [1] is HeLa Kyoto. Briefly: solubility in G1/S (NP-40 vs SDS abundance) (log2 ratio); higher = more soluble. As to conditions: cell cycle stage: G1/S.
Data set [2] concerns HeLa Kyoto. Put plainly: thermal stability score vs G1/S (z-score of summed log2 fold changes over temperatures); higher = more thermally stable than in G1/S.
The test system of data set [3] is HeLa Kyoto. Briefly: solubility change mitosis vs G1/S (difference of NP-40 vs SDS log2 ratios) (log2 ratio difference); higher = more soluble in mitosis.
In data set [4] the test system is HeLa Kyoto. Put plainly: melting temperature (median over replicates), in situ; higher = more thermally stable.
Setting [5] is: cell cycle stage: early G1 (4.5 h after nocodazole release).
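For melting temperature (median over replicates), in situ in this document: HeLa Kyoto cells synchronized by double thymidine or nocodazole block, proteins quantified by TMT10plex mass spectrometry, three independent biological replicates.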
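For solubility change mitosis vs G1/S (difference of NP-40 vs SDS log2 ratios) in this document: synchronized HeLa Kyoto cells (double thymidine block for G1/S, nocodazole release for mitosis), protein amounts in NP-40 versus SDS lysates quantified by mass spectrometry, three biological replicates.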
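For solubility in G1/S (NP-40 vs SDS abundance) in this document: HeLa Kyoto cells arrested at G1/S by double thymidine block, proteins quantified by TMT10plex mass spectrometry in mild NP-40 versus SDS extracts, three biological replicates.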
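For thermal stability score vs G1/S (z-score of summed log2 fold changes over temperatures) in this document: synchronized HeLa Kyoto cells, proteins quantified by TMT10plex mass spectrometry, three biological replicates, mitosis taken 0.5 h after nocodazole release, G1/S directly after double thymidine block.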

For the sequence “MASKEMFEDTVEERVINEEYKIWKKNTPFLYDLVMTHALQWPSLTVQWLPEVTKPEGKDYALHWLVLGTHTSDEQNHLVVARVHIPNDDAQFDASHCDSDKGEFGGFGSVTGKIECEIKINHEGEVNRARYMPQNPHIIATKTPSSDVLVFDYTKHPAKPDPSGECNPDLRLRGHQKEGYGLSWNSNLSGHLLSASDDHTVCLWDINAGPKEGKIVDAKAIFTGHSAVVEDVAWHLLHESLFGSVADDQKLMIWDTRSNTTSKPSHLVDAHTAEVNCLSFNPYSEFILATGSADKTVALWDLRNLKLKLHTFESHKDEIFQVHWSPHNETILASSGTDRRLNVWDLSKIGEEQSAEDAEDGPPELLFIHGGHTAKISDFSWNPNEPWVICSVSEDNIMQIWQMAENIYNDEESDVTTSELEGQGS [RBBP7]”, the “solubility in G1/S (log2)” value with HeLa Kyoto [1] came to 0.0292. Further, the thermal stability score is -0.845 in the data set with HeLa Kyoto [2] (setting [5]) and -1.83 with HeLa Kyoto [2] (cell cycle stage: mitosis). The “solubility change mitosis (log2)” value in the data set on HeLa Kyoto [3] is -0.157. For the same sequence, the melting temperature in the data set on HeLa Kyoto [4] (cell cycle stage: G1/S) was 53 °C; in the data set on HeLa Kyoto [4] (cell cycle stage: mitosis), 53.3 °C.

As to “MASKGAGMSFSRKSYRLTSDAEKSRVTGIVQEKLLNDYLNRIFSSSEHAPPAATSRKPLNFQNLPEHLDQLLQVDNEEEESQGQVEGRLGPSTVVLDHTGGFEGLLLVDDDLLGVIGHSNFGTIRSTTCVYKGKWLYEVLISSQGLMQIGWCTISCRFNQEEGVGDTHNSYAYDGNRVRKWNVTTTNYGKAWAAGDIVSCLIDLDDGTLSFCLNGVSLGTAFENLSRGLGMAYFPAISLSFKESVAFNFGSRPLRYPVAGYRPLQDPPSADLVRAQRLLGCFRAVLSVELDPVEGRLLDKESSKWRLRGQPTVLLTLAHIFHHFAPLLRKVYLVEAVLMSFLLGIVEKGTPTQAQSVVHQVLDLLWLFMEDYEVQDCLKQLMMSLLRLYRFSPIVPDLGLQIHYLRLTIAILRHEKSRKFLLSNVLFDVLRSVVFFYIKSPLRVEEAGLQELIPTTWWPHCSSREGKESTEMKEETAEERLRRRAYERGCQRLRKRIEVVEELQVQILKLLLDNKDDNGGEASRYIFLTKFRKFLQENASGRGNMPMLCPPEYMVCFLHRLISALRYYWDEYKASNPHASFSEEAYIPPQVFYNGKVDYFDLQRLGGLLSHLRKTLKDDLASKANIVIDPLELQSTAMDDLDEDEEPAPAMAQRPMQALAVGGPLPLPRPGWLSSPTLGRANRFLSTAAVSLMTPRRPLSTSEKVKVRTLSVEQRTREDIEGSHWNEGLLLGRPPEEPEQPLTENSLLEVLDGAVMMYNLSVHQQLGKMVGVSDDVNEYAMALRDTEDKLRRCPKRRKDILAELTKSQKVFSEKLDHLSRRLAWVHATVYSQEKMLDIYWLLRVCLRTIEHGDRTGSLFAFMPEFYLSVAINSYSALKNYFGPVHSMEELPGYEETLTRLAAILAKHFADARIVGTDIRDSLMQALASYVCYPHSLRAVERIPEEQRIAMVRNLLAPYEQRPWAQTNWILVRLWRGCGFGYRYTRLPHLLKTKLEDANLPSLQKPCPSTLLQQHMADLLQQGPDVAPSFLNSVLNQLNWAFSEFIGMIQEIQQAAERLERNFVDSRQLKVCATCFDLSVSLLRVLEMTITLVPEIFLDWTRPTSEMLLRRLAQLLNQVLNRVTAERNLFDRVVTLRLPGLESVDHYPILVAVTGILVQLLVRGPASEREQATSVLLADPCFQLRSICYLLGQPEPPAPGTALPAPDRKRFSLQSYADYISADELAQVEQMLAHLTSASAQAAAASLPTSEEDLCPICYAHPISAVFQPCGHKSCKACINQHLMNNKDCFFCKTTIVSVEDWEKGANTSTTSSAA [RNF123]”, in the data set with HeLa Kyoto [1], the “solubility in G1/S (log2)” value is -0.366. Further, the thermal stability score with HeLa Kyoto [2] (setting [5]) was -0.758; with HeLa Kyoto [2] (cell cycle stage: mitosis), 0.258. In addition, the “solubility change mitosis (log2)” value with HeLa Kyoto [3] was found to be 0.0631. Further, the melting temperature worked out at 50.4 °C in the data set on HeLa Kyoto [4] (cell cycle stage: G1/S) and 50.3 °C with HeLa Kyoto [4] (cell cycle stage: mitosis).

As for “MASLDDPGEVREGFLCPLCLKDLQSFYQLHSHYEEEHSGEDRDVKGQIKSLVQKAKKAKDRLLKREGDDRAESGTQGYESFSYGGVDPYMWEPQELGAVRSHLSDFKKHRAARIDHYVVEVNKLIIRLEKLTAFDRTNTESAKIRAIEKSVVPWVNDQDVPFCPDCGNKFSIRNRRHHCRLCGSIMCKKCMELISLPLANKLTSASKESLSTHTSPSQSPNSVHGSRRGSISSMSSVSSVLDEKDDDRIRCCTHCKDTLLKREQQIDEKEHTPDIVKLYEKLRLCMEKVDQKAPEYIRMAASLNAGETTYSLEHASDLRVEVQKVYELIDALSKKILTLGLNQDPPPHPSNLRLQRMIRYSATLFVQEKLLGLMSLPTKEQFEELKKKRKEEMERKRAVERQAALESQRRLEERQSGLASRAANGEVASLRRGPAPLRKAEGWLPLSGGQGQSEDSDPLLQQIHNITSFIRQAKAAGRMDEVRTLQENLRQLQDEYDQQQTEKAIELSRRQAEEEDLQREQLQMLRERELEREREQFRVASLHTRTRSLDFREIGPFQLEPSREPRTHLAYALDLGSSPVPSSTAPKTPSLSSTQPTRVWSGPPAVGQERLPQSSMPQQHEGPSLNPFDEEDLSSPMEEATTGPPAAGVSLDPSARILKEYNPFEEEDEEEEAVAGNPFIQPDSPAPNPFSEEDEHPQQRLSSPLVPGNPFEEPTCINPFEMDSDSGPEAEEPIEEELLLQQIDNIKAYIFDAKQCGRLDEVEVLTENLRELKHTLAKQKGGTD [RBSN]”, the “solubility in G1/S (log2)” value in the data set on HeLa Kyoto [1] is 0.33. Also, the figures for the thermal stability score with HeLa Kyoto [2] (setting [5]) and in the data set with HeLa Kyoto [2] (cell cycle stage: mitosis) were 0.55 and 1.28, respectively. Moreover, the “solubility change mitosis (log2)” value in the data set on HeLa Kyoto [3] is -0.00797. Also, the figures for the melting temperature with HeLa Kyoto [4] (cell cycle stage: G1/S) and in the data set on HeLa Kyoto [4] (cell cycle stage: mitosis) were 50.7 °C and 50.4 °C, respectively.

On to “MASNMDREMILADFQACTGIENIDEAITLLEQNNWDLVAAINGVIPQENGILQSEYGGETIPGPAFNPASHPASAPTSSSSSAFRPVMPSRQIVERQPRMLDFRVEYRDRNVDVVLEDTCTVGEIKQILENELQIPVSKMLLKGWKTGDVEDSTVLKSLHLPKNNSLYVLTPDLPPPSSSSHAGALQESLNQNFMLIITHREVQREYNLNFSGSSTIQEVKRNVYDLTSIPVRHQLWEGWPTSATDDSMCLAESGLSYPCHRLTVGRRSSPAQTREQSEEQITDVHMVSDSDGDDFEDATEFGVDDGEVFGMASSALRKSPMMPENAENEGDALLQFTAEFSSRYGDCHPVFFIGSLEAAFQEAFYVKARDRKLLAIYLHHDESVLTNVFCSQMLCAESIVSYLSQNFITWAWDLTKDSNRARFLTMCNRHFGSVVAQTIRTQKTDQFPLFLIIMGKRSSNEVLNVIQGNTTVDELMMRLMAAMEIFTAQQQEDIKDEDEREARENVKREQDEAYRLSLEADRAKREAHEREMAEQFRLEQIRKEQEEEREAIRLSLEQALPPEPKEENAEPVSKLRIRTPSGEFLERRFLASNKLQIVFDFVASKGFPWDEYKLLSTFPRRDVTQLDPNKSLLEVKLFPQETLFLEAKE [FAF1]”, for which, in the data set with HeLa Kyoto [1], the “solubility in G1/S (log2)” value came out at 0.0926. Besides, the figures for the thermal stability score in the data set on HeLa Kyoto [2] (setting [5]) and in the data set with HeLa Kyoto [2] (cell cycle stage: mitosis) were 0.291 and 1.77, respectively. Moreover, the “solubility change mitosis (log2)” value with HeLa Kyoto [3] is -0.147. Besides, the melting temperature in the data set with HeLa Kyoto [4] (cell cycle stage: G1/S) came to 53.6 °C; in the data set with HeLa Kyoto [4] (cell cycle stage: mitosis), 53.5 °C.

For “MASPGCLLCVLGLLLCGAASLELSRPHGDTAKKPIIGILMQKCRNKVMKNYGRYYIAASYVKYLESAGARVVPVRLDLTEKDYEILFKSINGILFPGGSVDLRRSDYAKVAKIFYNLSIQSFDDGDYFPVWGTCLGFEELSLLISGECLLTATDTVDVAMPLNFTGGQLHSRMFQNFPTELLLSLAVEPLTANFHKWSLSVKNFTMNEKLKKFFNVLTTNTDGKIEFISTMEGYKYPVYGVQWHPEKAPYEWKNLDGISHAPNAVKTAFYLAEFFVNEARKNNHHFKSESEEEKALIYQFSPIYTGNISSFQQCYIFD [GGH]”, in the data set with HeLa Kyoto [1], the “solubility in G1/S (log2)” value was found to be 0.326. The thermal stability score in the data set on HeLa Kyoto [2] (setting [5]) was 0.878; in the data set on HeLa Kyoto [2] (cell cycle stage: mitosis) it was -0.77. Also, the “solubility change mitosis (log2)” value in the data set with HeLa Kyoto [3] was -0.0381. In addition, the melting temperature with HeLa Kyoto [4] (cell cycle stage: G1/S) was found to be 60.5 °C; with HeLa Kyoto [4] (cell cycle stage: mitosis) it was 60 °C.
